# Measured values as given in patent US20230020406A1 (published 2023).
# Ends that are not written are not given here. * marks the point of attachment. Biotin = O=C1N[C@H]2[C@H](CS[C@H]2CCCCC(=O)*)N1
# T1: AA111-228 DNA-binding domain of RXR-alpha (UniProt P19793 111-228)
# T1 construct: Bought recombinant protein (Abcam), adsorbed to the plate; also called RXRa-DBD
# T1 sequence (looked up): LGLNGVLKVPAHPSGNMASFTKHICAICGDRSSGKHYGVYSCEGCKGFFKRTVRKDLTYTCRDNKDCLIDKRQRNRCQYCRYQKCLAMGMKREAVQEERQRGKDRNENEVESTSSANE
# Biological target: T1, AA111-228 DNA-binding domain of …
# Assay: plate assay: 1 ug/well RXRa-DBD adsorbed, 800 ng/well SA488-labelled peptide, fluorometer 485/525 nm
# Method: Experiment x3A. […] 1 ug/well recombinant RXRa-DBD (Abcam, Cambridge, Mass.) was adsorbed to wells of a 96-well plate for 60 minutes at RT, then blocked with 200 uL 1% BSA in PBS buffer overnight. […] The plate was incubated for 60 min at room temperature, washed and counted in a standard fluorometer (excitation/emission 485/525 nm). Background (buffer alone) was subtracted.
row,Binder,Fluorescence
1,"Biotin-KNGFYHSRQCETSMDGEAGLCW (cysteine pairing not given here; also: complexed with Streptavidin-Alexa 488 conjugate (SA488), Synthetic peptide with an IGFBP-derived core) [immodulator peptide IM1]",670 fluorescence units (background subtracted)
2,"Biotin-KKGFYKKKQCRPSKGRKRGFCW (cysteine pairing not given here; also: complexed with Streptavidin-Alexa 488 conjugate (SA488), IGFBP-3-derived core; also called 1M3) [immodulator peptide IM3]",6570 fluorescence units (background subtracted)
3,"Biotin-KHGLYNLKQCKMSLNGQRGECW (cysteine pairing not given here; also: complexed with Streptavidin-Alexa 488 conjugate (SA488), Synthetic peptide) [immodulator peptide IM2]",2 fluorescence units (background subtracted)
4,"Biotin-RNGNFHPKQCHPALDGQRGKCW (cysteine pairing not given here; also: complexed with Streptavidin-Alexa 488 conjugate (SA488), Synthetic peptide) [immodulator peptide IM4]",27 fluorescence units (background subtracted)
5,"Biotin-HRGFYRKRQCRSSQGQRRGPCW (cysteine pairing not given here; also: complexed with Streptavidin-Alexa 488 conjugate (SA488), Synthetic peptide; also called 1M6) [immodulator peptide IM6]",587 fluorescence units (background subtracted)
6,"Biotin-RKGFYKRKQCKPSRGRKRGICW (cysteine pairing not given here; also: complexed with Streptavidin-Alexa 488 conjugate (SA488), Synthetic peptide; also called 1M5) [immodulator peptide IM5]",6800 fluorescence units (background subtracted)
